Bridges are numbered along the chain shown (N, C = ends). Where no end group is shown, it is not given here. [ ]: non-standard residue; d: D form. The star is where a group is joined. Acetyl(2-(4-imidazolyl)) = O=C(Cc1c[nH]cn1)*; Aib = CC(C)(N)C(=O)O
Experiments:
Test in all cases: cell-based or functional assay
[1] = molecular target: human GLP-1 receptor (human, UniProt P43220 24-463)
[2] = molecular target: T1, human GIP receptor (human, UniProt P48546 22-466)
T1 sequence (looked up): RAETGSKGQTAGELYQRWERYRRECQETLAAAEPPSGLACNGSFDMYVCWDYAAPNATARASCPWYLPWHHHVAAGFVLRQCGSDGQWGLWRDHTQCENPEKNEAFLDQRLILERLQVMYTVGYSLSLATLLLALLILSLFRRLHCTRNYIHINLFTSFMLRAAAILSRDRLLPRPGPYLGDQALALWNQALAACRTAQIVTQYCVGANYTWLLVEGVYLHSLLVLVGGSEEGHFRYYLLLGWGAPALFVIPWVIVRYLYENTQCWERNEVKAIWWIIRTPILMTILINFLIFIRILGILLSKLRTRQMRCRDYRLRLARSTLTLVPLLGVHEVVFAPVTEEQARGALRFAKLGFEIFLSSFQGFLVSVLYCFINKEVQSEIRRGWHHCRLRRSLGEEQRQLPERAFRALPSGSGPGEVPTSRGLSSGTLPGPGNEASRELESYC

[3] = molecular target: human GCG receptor (human, UniProt P47871 26-477)
Sequence of human GCG receptor (P47871 26-477): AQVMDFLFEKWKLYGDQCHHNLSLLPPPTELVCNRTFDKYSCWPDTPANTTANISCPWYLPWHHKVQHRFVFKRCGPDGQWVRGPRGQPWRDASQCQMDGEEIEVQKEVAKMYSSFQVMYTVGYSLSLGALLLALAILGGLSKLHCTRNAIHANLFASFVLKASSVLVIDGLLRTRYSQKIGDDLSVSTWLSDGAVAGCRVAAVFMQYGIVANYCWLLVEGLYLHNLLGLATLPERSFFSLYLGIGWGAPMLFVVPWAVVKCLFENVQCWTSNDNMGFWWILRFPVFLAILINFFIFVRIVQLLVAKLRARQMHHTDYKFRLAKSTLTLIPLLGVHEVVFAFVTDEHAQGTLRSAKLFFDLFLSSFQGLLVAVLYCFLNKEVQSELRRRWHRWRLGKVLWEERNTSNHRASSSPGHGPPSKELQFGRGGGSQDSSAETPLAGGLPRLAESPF

Y[Aib]QGTFTSDYSKYLDECRAKDFVQWLLDHHPSSGQPPPS (bridge 16-20; not fully specified (C-terminus)) [triple agonist of SEQ ID NO: 66]
in vitro Activity Compared to Native Peptide (%), vs GLP-1 [1]: 15.8% | in vitro Activity Compared to Native Peptide (%), vs GIP [2]: 17.2% | in vitro Activity Compared to Native Peptide (%), vs Glucagon [3]: 172%

Y[Aib]QGTFTSDCSKYLDERAAKDFVQWLLDHHPSSGQPPPS (bridge 16-20; not fully specified (C-terminus)) [triple agonist of SEQ ID NO: 72]
in vitro Activity Compared to Native Peptide (%), vs GLP-1 [1]: 11.5% | in vitro Activity Compared to Native Peptide (%), vs GIP [2]: 1.6% | in vitro Activity Compared to Native Peptide (%), vs Glucagon [3]: 1%

Y[Aib]QGTFTSDYSKCLDEKAAKEFVQWLLDHHPSSGQPPPS (bridge 16-20; not fully specified (C-terminus)) [triple agonist of SEQ ID NO: 68]
in vitro Activity Compared to Native Peptide (%), vs GLP-1 [1]: 27.9% | in vitro Activity Compared to Native Peptide (%), vs GIP [2]: 107% | in vitro Activity Compared to Native Peptide (%), vs Glucagon [3]: 8.8%

[Acetyl(2-(4-imidazolyl))][Aib]QGTFTSDCSKYLDERAAQDFVQWLLDGGPSSGAPPPS (not fully specified (C-terminus)) [triple agonist of SEQ ID NO: 63]
in vitro Activity Compared to Native Peptide (%), vs GLP-1 [1]: 15.3% | in vitro Activity Compared to Native Peptide (%), vs GIP [2]: < 0.1% | in vitro Activity Compared to Native Peptide (%), vs Glucagon [3]: < 0.1%

H[Aib]QGTFTSDVSKYLDGQAAQEFVAWLLKGC (not fully specified (C-terminus)) [triple agonist of SEQ ID NO: 8]
in vitro Activity Compared to Native Peptide (%), vs GLP-1 [1]: 14.2% | in vitro Activity Compared to Native Peptide (%), vs GIP [2]: < 0.1% | in vitro Activity Compared to Native Peptide (%), vs Glucagon [3]: 0.1%

Y[Aib]QGTFTSDYSKYLDERACKDFVQWLLDHHPSSGQPPPS (bridge 16-20; not fully specified (C-terminus)) [triple agonist of SEQ ID NO: 71]
in vitro Activity Compared to Native Peptide (%), vs GLP-1 [1]: 90.1% | in vitro Activity Compared to Native Peptide (%), vs GIP [2]: 94.7% | in vitro Activity Compared to Native Peptide (%), vs Glucagon [3]: 12.7%

Y[Aib]QGTFTSDYSKYLDECAAKDFVQWLLDHHPSSGQPPPS (bridge 16-20; not fully specified (C-terminus)) [triple agonist of SEQ ID NO: 67]
in vitro Activity Compared to Native Peptide (%), vs GLP-1 [1]: 28.5% | in vitro Activity Compared to Native Peptide (%), vs GIP [2]: 39.8% | in vitro Activity Compared to Native Peptide (%), vs Glucagon [3]: 46.2%

Y[Aib]QGTFTSDYSKYLDEKAAKEFVQWLLDHHPSSGQPPPSC (bridge 16-20; not fully specified (C-terminus)) [triple agonist of SEQ ID NO: 75]
in vitro Activity Compared to Native Peptide (%), vs GLP-1 [1]: 35.1% | in vitro Activity Compared to Native Peptide (%), vs GIP [2]: 18% | in vitro Activity Compared to Native Peptide (%), vs Glucagon [3]: 8.5%

Y[Aib]QGTFTSDYSKCLDEKRAKDFVQWLLDHHPSSGQPPPS (bridge 16-20; not fully specified (C-terminus)) [triple agonist of SEQ ID NO: 70]
in vitro Activity Compared to Native Peptide (%), vs GLP-1 [1]: 15.1% | in vitro Activity Compared to Native Peptide (%), vs GIP [2]: 64.4% | in vitro Activity Compared to Native Peptide (%), vs Glucagon [3]: 71.3%

[Acetyl(2-(4-imidazolyl))][Aib]QGTFTSDYSIAMDEIACKDFVNWLLNTK (bridge 16-20; not fully specified (C-terminus)) [triple agonist of SEQ ID NO: 61]
in vitro Activity Compared to Native Peptide (%), vs GLP-1 [1]: 59.8% | in vitro Activity Compared to Native Peptide (%), vs GIP [2]: 2.8% | in vitro Activity Compared to Native Peptide (%), vs Glucagon [3]: < 0.1%

[Acetyl(2-(4-imidazolyl))][Aib]QGTFTSDKSKYLDERAAQDFVQWLLDGGPSSGAPPPS (not fully specified (C-terminus)) [triple agonist of SEQ ID NO: 62]
in vitro Activity Compared to Native Peptide (%), vs GLP-1 [1]: 5.2% | in vitro Activity Compared to Native Peptide (%), vs GIP [2]: < 0.1% | in vitro Activity Compared to Native Peptide (%), vs Glucagon [3]: < 0.1%

Y[Aib]QGTFTSDYSKYLDEKAAKDFVQWLLDHHPSSGQPPPSC-NH2 (bridge 16-20) [triple agonist of SEQ ID NO: 77]
in vitro Activity Compared to Native Peptide (%), vs GLP-1 [1]: 38.7% | in vitro Activity Compared to Native Peptide (%), vs GIP [2]: 35.5% | in vitro Activity Compared to Native Peptide (%), vs Glucagon [3]: 12.2%

H[Aib]QGTFTSDVSKYLDGQAAKEFVAWLLKGC (not fully specified (C-terminus)) [triple agonist of SEQ ID NO: 7]
in vitro Activity Compared to Native Peptide (%), vs GLP-1 [1]: 13.7% | in vitro Activity Compared to Native Peptide (%), vs GIP [2]: < 0.1% | in vitro Activity Compared to Native Peptide (%), vs Glucagon [3]: < 0.1%

[Acetyl(2-(4-imidazolyl))][Aib]QGTFTSDYSKYLDEKRQKEFVQWLLNTC (bridge 16-20; not fully specified (C-terminus)) [triple agonist of SEQ ID NO: 81]
in vitro Activity Compared to Native Peptide (%), vs GLP-1 [1]: 7.8% | in vitro Activity Compared to Native Peptide (%), vs GIP [2]: < 0.1% | in vitro Activity Compared to Native Peptide (%), vs Glucagon [3]: 0.3%

H[Aib]QGTFTSDYSKYLDEKRQKEFVQWLLDTKC (bridge 16-20; not fully specified (C-terminus)) [triple agonist of SEQ ID NO: 78]
in vitro Activity Compared to Native Peptide (%), vs GLP-1 [1]: 51% | in vitro Activity Compared to Native Peptide (%), vs GIP [2]: 0.12% | in vitro Activity Compared to Native Peptide (%), vs Glucagon [3]: 14%

[Acetyl(2-(4-imidazolyl))][Aib]QGTFTSDYSKCLDEKRAKEFVQWLLDHHPSSGQPPPS (bridge 16-20; not fully specified (C-terminus)) [triple agonist of SEQ ID NO: 74]
in vitro Activity Compared to Native Peptide (%), vs GLP-1 [1]: 12.9% | in vitro Activity Compared to Native Peptide (%), vs GIP [2]: 1% | in vitro Activity Compared to Native Peptide (%), vs Glucagon [3]: 0.9%

Y[Aib]QGTFTSDYSKYLDECAAKEFVQWLLDHHPSSGQPPPS (bridge 16-20; not fully specified (C-terminus)) [triple agonist of SEQ ID NO: 64]
in vitro Activity Compared to Native Peptide (%), vs GLP-1 [1]: 64.6% | in vitro Activity Compared to Native Peptide (%), vs GIP [2]: 92.9% | in vitro Activity Compared to Native Peptide (%), vs Glucagon [3]: 60.1%

Y[Aib]QGTFTSDYSKYLDEKRAKDFVQWLLDHHPSSGQPPPSC (bridge 16-20; not fully specified (C-terminus)) [triple agonist of SEQ ID NO: 76]
in vitro Activity Compared to Native Peptide (%), vs GLP-1 [1]: 10.3% | in vitro Activity Compared to Native Peptide (%), vs GIP [2]: 11.7% | in vitro Activity Compared to Native Peptide (%), vs Glucagon [3]: 47.6%

H[Aib]EGTFTSDYSIAMDEIHQKDFVNWLLAQKC (bridge 16-20; not fully specified (C-terminus)) [triple agonist of SEQ ID NO: 79]
in vitro Activity Compared to Native Peptide (%), vs GLP-1 [1]: 41.5% | in vitro Activity Compared to Native Peptide (%), vs GIP [2]: 1.4% | in vitro Activity Compared to Native Peptide (%), vs Glucagon [3]: 4.9%

[Acetyl(2-(4-imidazolyl))][Aib]QGTFTSDYSKYLDECRAKEFVQWLLDHHPSSGQPPPS (bridge 16-20; not fully specified (C-terminus)) [triple agonist of SEQ ID NO: 73]
in vitro Activity Compared to Native Peptide (%), vs GLP-1 [1]: 22.6% | in vitro Activity Compared to Native Peptide (%), vs GIP [2]: 3% | in vitro Activity Compared to Native Peptide (%), vs Glucagon [3]: 5.4%

Y[Aib]QGTFTSDYSKCLDERAAKEFVQWLLDHHPSSGQPPPS (bridge 16-20; not fully specified (C-terminus)) [triple agonist of SEQ ID NO: 69]
in vitro Activity Compared to Native Peptide (%), vs GLP-1 [1]: 24.3% | in vitro Activity Compared to Native Peptide (%), vs GIP [2]: 62.8% | in vitro Activity Compared to Native Peptide (%), vs Glucagon [3]: 9.6%

[Acetyl(2-(4-imidazolyl))][Aib]QGTFTSDYSIAMDEKHCKDFVNWLLNTK (bridge 16-20; not fully specified (C-terminus)) [triple agonist of SEQ ID NO: 60]
in vitro Activity Compared to Native Peptide (%), vs GLP-1 [1]: 106% | in vitro Activity Compared to Native Peptide (%), vs GIP [2]: 8.2% | in vitro Activity Compared to Native Peptide (%), vs Glucagon [3]: < 0.1%

[Acetyl(2-(4-imidazolyl))][Aib]QGTFTSDYSKYLDEKRQKEFVQWLLDTC (bridge 16-20; not fully specified (C-terminus)) [triple agonist of SEQ ID NO: 82]
in vitro Activity Compared to Native Peptide (%), vs GLP-1 [1]: 9.5% | in vitro Activity Compared to Native Peptide (%), vs GIP [2]: < 0.1% | in vitro Activity Compared to Native Peptide (%), vs Glucagon [3]: 1.1%

H[Aib]QGTFTSDYSKCLDEKRAKEFVQWLLDHHPSSGQPPPS (bridge 16-20; not fully specified (C-terminus)) [triple agonist of SEQ ID NO: 65]
in vitro Activity Compared to Native Peptide (%), vs GLP-1 [1]: 95.4% | in vitro Activity Compared to Native Peptide (%), vs GIP [2]: 11.6% | in vitro Activity Compared to Native Peptide (%), vs Glucagon [3]: 25.2%

H[Aib]EGTFTSDYSIAMDEIHQKDFVDWLLAEKC (bridge 16-20; not fully specified (C-terminus)) [triple agonist of SEQ ID NO: 80]
in vitro Activity Compared to Native Peptide (%), vs GLP-1 [1]: 8.1% | in vitro Activity Compared to Native Peptide (%), vs GIP [2]: 0.1% | in vitro Activity Compared to Native Peptide (%), vs Glucagon [3]: 0%

Reference: patent US20250114463A1, “LIVER-TARGETED DRUG AND USE THEREOF” (HANMI PHARM. CO., LTD., priority 2021, published 2025)
